Experimental data: patent US7399747B1, “Peptides carrying substances across the blood brain barrier” (SYNT:EM, priority 1998, dated 2008)
“Also recorded” adds a separate entry of the source. *1 amine or outer side, *2 acyl side, *3 side chain or, on linkers, in order; H or OH if unused. Where a SMILES comes first, the peptide text is derived from it. Where no end group is shown, it is not given here. The star is where a group is joined. Doxorubicin(3'-N) = COc1cccc2c1C(=O)c1c(O)c3c(c(O)c1C2=O)C[C@@](O)(C(=O)CO)C[C@@H]3O[C@H]1C[C@H](N*)[C@H](O)[C@H](C)O1; Suc = O=C(CCC(=O)[*:2])[*:1]

What was measured:
[1] = Capillary depletion after cerebral perfusion and rinsing (distribution volume Vd); type: in vivo, rat
Experimental: This method is used to measure the distribution of products between the cerebral parenchyma and endothelial cells, Triguero et al., 1990, J. Neurochem. 54, 1882-1888). After 60 seconds of perfusion, that may or may not be followed by 30 seconds rinsing, the right hemisphere is removed, its meninges and choroid plexus are removed, and it is then homogenized in 3.5 ml of Hepes buffer (10 mM of Hepes, 141 mM of NaCl, 4 mM of KCl, 1 mM of NaH2PO4, 2.8 mM of CaCl2, 1 mM of MgSO4 and 10 mM of D-glucose, pH=7.4). After grinding in the potter, 4 ml of solution containing 4% of Dextran (PM=76900) are added and the mix is stirred vigorously in order to obtain a […]. All these operations are carried out at 4° C. in less than 5 minutes. After taking a sample of the homogenate thus obtained, the homogenate is then put into the centrifuge for 15 minutes at 5400 g in order to separate the endothelial cells present in the base of the cerebral parenchyma that remained in the floating material. The results are expressed as distribution volumes in the floating material and the base.
This method measures the distribution of products between the cerebral parenchyma and endothelial cells. Capillary depletion is carried out after 60 seconds perfusion followed by 30 seconds rinsing. The distribution volumes (Vd) in endothelial cells and the cerebral parenchyma are expressed in microliters/g.

[2] = In situ cerebral perfusion, penetration into the brain (influx constant Kin); type: in vivo, rat
Experimental: The rats are perfused with the buffer containing free doxorubicin or compounds No. 1 or 2. The doxorubicin is radio-marked with carbon 14 in each product (specific activity=9.4 microCi/mg, Amersham, France). The products are perfused at a concentration of 0.33 microCi/ml or 0.035 mg/rat.
The heart is stopped by cutting the ventricles immediately before perfusion starts, in order to prevent reflux of the perfusate during the perfusion.
The brain is removed quickly after decapitation. The brain is dissected on a mirror into 8 regions, namely Hypothalamus (HY), frontal Cortex (CF), Mesencephale (MS), Occipital Cortex (CO), Parietal Cortex (CP), Thalamus (TH), Hippocampus (HP), Striatum (ST), which are placed in previously calibrated glass flasks and then weighed. These structures and 50 microliters of perfusate are digested for two hours in 1 ml of soluene at 60° C. A scintillating cocktail (10 ml, Pico-fluor, Packard) is added to each sample and the quantity of tracers contained in them is measured by double counting in liquid scintillation (Packard, Tricarb, 1900TR).
This study consisted of comparing penetration in the HEB of doxorubicin alone with doxorubicin using compounds numbers 1 and 2 as vectors. After 60 seconds perfusion in the buffer, the penetration of products was estimated using the influx constant or Kin in microl/sec/g. […]

[3] = Intravenous injection in NMRI-nude mice, radioactivity in the brain; details: for Product quantity in brain: i.v. 2.5 mg DXR base/kg
Experimental: NMRI-nude mice are injected intravenously with compound No. 1 or doxorubicin alone at a dose of 2.5 mg/kg (equivalent in doxorubicin). The doxorubicin is marked with carbon 14 (about 0.5 microCi is injected per mouse). The mice are sacrificed after 1, 5, 15, 30, 60, 180, 480 and 1360 minutes. The organs are then removed and counted. The quantity of radioactivity in each organ is then expressed as the quantity of product per gram of organ. In this study, we used five mice for each period of time.
After intravenous injection of compound No. 1, nude mice were sacrificed at different times and the total radioactivity in the brain was counted and expressed as a quantity of product per gram of brain.

[4] = Intravenous injection in CD1 mice, whole-body autoradiography, brain; details: i.v. 2 mg DXR base/kg
Experimental: In the case of compound No. 2, the CD1 mouse is injected intravenously with compound No. 2 or with free doxorubicin at a dose of 2 mg/kg (equivalent in doxorubicin). Doxorubicin is marked with carbon 14 (about 3 microCi is injected per mouse). The mouse is sacrificed after 15 minutes, 2 hours and 8 hours, and the product quantity in each organ is analysed using the “Whole-body autoradiography” technique. The quantity of radioactivity in each organ is then expressed as a quantity of product per gram of organ. We used one mouse per group in this experiment.
The total radioactivity in the brain is analysed using the “Whole body autoradiography” method and is expressed as a product quantity per gram of brain.

[5] = tested on: HEB; test: Tolerance to products: integrity of HEB by [3H]-sucrose distribution volume during in situ cerebral perfusion; details: co-perfused with [3H]-sucrose
Excerpt: This is a fast and sensitive method of evaluating the penetration of various compounds into the central nervous system (Takasato et al., 1984, Am. J. Physiol. 247, 484-493; Allen et al., 1997, Pharm Res. 14, 337-341). Two month old male Sprague-dawley rats (250-350 g. Iffa-Credo; l'Arbresle, France) are anaesthetised. After exposure of the common carotid, the right external carotid artery is bound at the junction with the internal carotid and the common carotid is bound between the heart and the site at which the catheter is installed (polyethylene catheter, ID=0.76). This catheter, previously filled with a solution of heparin (100 units/ml) is inserted into the common carotid. Rats are perfused with the perfusion buffer (128 mM NaCl, 24 mM NaHCO3, 4.2 mM KCl, 2.4 mM NaH2PO4, 1.5 mM CaCl2, 0.9 mM MgSO4, and 9 mM D-glucose). This buffer is filtered and then is bubbled using a mix containing 95% O2/5% CO2 in order to keep the pH close to 7.4 and to supply oxygen to the brain during the perfusion.
It is estimated that this volume must not exceed […]. For larger volumes, it is concluded that the permeability of HEB is abnormal.
Doxorubicin, compounds numbers 1 and 2 were injected in the presence of sucrose and the integrity of the HEB is measured.

[6] = for Reduction of the influx constant after rinsing: 60 s perfusion then 30 s rinsing with buffer without tracer
Experimental: For rats on which the rinsing step is carried out, the catheter is inserted into the common carotid as described above, and is then connected to a 4-way valve (opposite passages) (Hamilton, USA) connected to two syringes; one containing the radio-marked tracer (syringe A) and the other the buffer alone (syringe B). Once the catheter is in position and the connections have been made correctly, the thoracic cage of the rat is opened and the heart is cut. The contents of syringe A are then immediately perfused at a rate of 10 ml/min. After 60 seconds, the contents of syringe B are injected in turn at the same rate. The rat is decapitated after 30 seconds of rinsing.
Rinsing of cerebral capillaries by perfusion of the buffer without tracer for 30 seconds eliminates the fraction of the product being studied adhering to the luminal membrane of endothelial cells, if any.

[7] = Hot Plate model (latency time); type: in vivo, mouse; details: for Effect on latency time / analgesic activity: i.v. injection, latency measured 0 to 90 minutes; for Latency time: 2 mg/Kg i.v. (dalargine equivalent), 5 minutes after injection
Experimental: For the purposes of this study, the biological activity of dalargine alone was compared with the biological activity of dalargine vectorised with SynB1. Consequently, the “Hot Plate” model in the mouse was used. In this model, the mouse is placed on a hot plate and the time that the mouse takes to react to heat is measured as the “latency time”.
2 mg/Kg of each product was injected intravenously into the mouse (the dose corresponding to the quantity of dalargine). After times varying from 0 to 90 minutes, the latency time was measured. […] The latency time is constant. […] For example 5 minutes after injection, the latency time of vectorised dalargine is 22.75 seconds, whereas it is only 7.6 seconds for dalargine alone.

[8] = 60 seconds perfusion followed by 30 seconds rinsing

Compound: COc1cccc2c1C(=O)c1c(O)c3c(c(O)c1C2=O)C[C@@](O)(C(=O)CO)C[C@@H]3O[C@H]1C[C@H](NC(=O)CCC(=O)N[C@@H](CCCNC(=N)N)C(=O)N[C@@H](CCCNC(=N)N)C(=O)N[C@@H](CC(C)C)C(=O)N[C@@H](CO)C(=O)N[C@@H](Cc2ccc(O)cc2)C(=O)N[C@@H](CO)C(=O)N[C@@H](CCCNC(=N)N)C(=O)N[C@@H](CCCNC(=N)N)C(=O)N[C@@H](CCCNC(=N)N)C(=O)N[C@@H](Cc2ccccc2)C(=O)O)[C@H](O)[C@H](C)O1 [No. 5, Doxo-CO—(CH2)2—CO-RRLSYSRRRF] ({Doxorubicin(3'-N)-Suc}-RRLSYSRRRF-OH)
- Penetration in the cerebral parenchyma compared with free doxorubicin [1, 8]: 50 times
- Vd in the cerebral parenchyma [1, 8]: 98.32 µL/g
- Increase of transfer into the brain (Kin) compared with doxorubicin alone ([2]; 60 seconds perfusion in the buffer): five times

Compound: CC1(C)S[C@@H]2[C@H](NC(=O)Cc3ccccc3)C(=O)N2[C@H]1C(=O)O [benzylpenicillin, Benzylpenicillin, reference compound]
- Vd in the cerebral parenchyma ([1]; 30 seconds perfusion followed by 30 seconds rinsing): 3.94 µL/g

Compound: COc1cccc2c1C(=O)c1c(O)c3c(c(O)c1C2=O)C[C@@](O)(C(=O)CO)C[C@@H]3O[C@H]1C[C@H](N)[C@H](O)[C@H](C)O1 [doxorubicin, Doxorubicin, reference compound]
- Vd in the cerebral parenchyma [1, 8]: 1.75 µL/g
- Product quantity in brain ([3]; 1 min): 0.14 microg/g of brain
- Product quantity in brain ([3]; 5 min): 0.05 microg/g of brain
- Product quantity in brain ([3]; 15 min): 0.04 microg/g of brain
- Product quantity in brain ([3]; 30 min): 0.05 microg/g of brain
- Product quantity in brain ([3]; 60 min): 0.04 microg/g of brain
- Product quantity in brain ([3]; 180 min): 0.03 microg/g of brain
- Product quantity in brain ([3]; 480 min): 0.04 microg/g of brain
- Product quantity in brain ([3]; 1360 min): 0.01 microg/g of brain
- Product quantity in brain ([4]; 15 min): 1.24 ug/g of brain
- Product quantity in brain ([4]; 120 min): 0.98 ug/g of brain
- Product quantity in brain ([4]; 480 min): 0.67 ug/g of brain
- State of the HEB ([5]; perfused dose 0.07 mg): Integral
- Reduction of the influx constant after rinsing [6]: about 25%

Compound: Doxo-CO—(CH2)2—CO-RGGRLSYSRRRFSTSTGR ({doxorubicin-Suc}-RGGRLSYSRRRFSTSTGR) [Compound No. 1]
- Vd in the cerebral parenchyma [1, 8]: 28.5 µL/g
- Fraction of compound found in the cerebral parenchyma ([1]; 1 minute perfusion followed by 30 seconds rinsing): About 60%
- Ratio of compound No. 1/doxorubicin (brain quantity) ([3]; 1 min after i.v. injection): 3.4
- Ratio of compound No. 1/doxorubicin (brain quantity) ([3]; 5 min after i.v. injection): 3.6
- Ratio of compound No. 1/doxorubicin (brain quantity) ([3]; 15 min after i.v. injection): 10.5
- Ratio of compound No. 1/doxorubicin (brain quantity) ([3]; 30 min after i.v. injection): 5
- Ratio of compound No. 1/doxorubicin (brain quantity) ([3]; 60 min after i.v. injection): 3
- Ratio of compound No. 1/doxorubicin (brain quantity) ([3]; 180 min after i.v. injection): 1
- Product quantity in brain ([3]; 1 min): 0.48 microg/g of brain
- Product quantity in brain ([3]; 5 min): 0.18 microg/g of brain
- Product quantity in brain ([3]; 15 min): 0.42 microg/g of brain
- Product quantity in brain ([3]; 30 min): 0.25 microg/g of brain
- Product quantity in brain ([3]; 60 min): 0.12 microg/g of brain
- Product quantity in brain ([3]; 180 min): 0.03 microg/g of brain
- Product quantity in brain ([3]; 480 min): 0.02 microg/g of brain
- Product quantity in brain ([3]; 1360 min): 0.01 microg/g of brain
- State of the HEB ([5]; perfused dose 0.05 mg): Integral
- State of the HEB ([5]; perfused dose 0.8 mg): does not open the HEB abnormally; also recorded: Integral
- Increase of penetration after rinsing compared with free doxorubicin (factor) ([6]; 60 s perfusion then 30 s rinsing): 4
- Reduction of the influx constant after rinsing [6]: 45%

Compound: RGGRLSYSRRRFSTSTGR (PEPTIDE (1)..(18) Syn B1) [SynB1]
- Effect on latency time / analgesic activity [7]: no analgesic activity

Compound: Y-(D)A-GFLR [dalargine, reference compound]
- Latency time [7]: 7.6 s
- Effect on latency time / analgesic activity [7]: no effect was observed

Compound: Y-(D)A-GFLR-S-S-RGGRLSYSRRRFSTSTGR [dal-SynB1]
- Latency time [7]: 22.75 s
- Effect on latency time / analgesic activity [7]: an increase in the latency time is observed
- Transfer into the brain (Kin) compared with dalargine alone ([2]; 60 seconds perfusion in the buffer (FIG. 7)): considerably increases its transfer into the brain
